Values quoted from earlier work in publication PMC4031507.

Biological target: Cys+1 (UniProt position 252, VVKNKCLAEGT)

RecA intein (Mtu RecA intein) with C-extein Cys+1 (Mycobacterium tuberculosis)
pKa: 5.8
